From US20250281533A1 (LG CHEM, published 2025)
One block for each binder: values may come before it.

Molecular target: T1, Human MUC1 protein (human, UniProt P15941 1041-1153, limits assumed)
T1 construct: also called mucin1 antigen; human mucin1
T1 sequence: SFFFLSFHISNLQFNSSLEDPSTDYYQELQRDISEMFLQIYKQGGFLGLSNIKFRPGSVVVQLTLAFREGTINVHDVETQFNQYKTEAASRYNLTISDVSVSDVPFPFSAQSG
Experiment: SPR, Biacore T200; scFv-Fc on anti-human IgG (Fc) CM5 chip, human MUC1 protein injected at 25-400 nM
Protocol: Affinity of scFv-Fc antibody including the scFv for mucin1 antigen was measured using Biacore T200 (GE healthcare). Anti-human IgG (Fc) antibody (GE healthcare, Cat. No. BR-1008-39, final concentration of 25 ug/mL) was applied at a rate of 5 uL/min for 360 seconds on a Series S Sensor Chip CM5 (GE healthcare, Cat. No. BR-1005-30) using an Amine Coupling Kit (GE healthcare, Cat. No. BR-1000-50) and immobilized at about 5000-7000 RU.

B1: scFv-Fc antibody including the scFv 2447_3A09 (Fc fusion)
scFv: EVQLLESGGGLVQPGRSLRLSCAATGFTFDDYAMHWVRQAPGKGLEWVSGISWNSGSIGYADSVKGRFTISRDNAKNSLYLQMNSLRAEDTASYYCAKDVSSGWYWYAFDIWGQGTLVTVSSGGGGSGGGGSGGGASSYELTQDPAVSVALGQTVRITCQGDSLRSYYASWYQQKPGQAPVLVIYGKNNRPSGIPGRFSGSSSGNTASLTVTGAQAEDEADYYCNSRDSGGSVVFGGGTKLTVL
notes: scFv-Fc format as used in the Biacore assay; not shown: Fc part (with any hinge or linker) of the scFv-Fc
Kd: 62.1 nM

B3: scFv-Fc antibody including the scFv 2447_2H08 (Fc fusion)
scFv: EVQLVQSGAEVKKPGASVKVSCKASGYTFTNYGISWVRQAPGQGLEWMGWISAYNGNTNYAQKLQGRVTMTTDTSTSTAYMELRSLRSDDTAVYYCARDPHILTGYYRGGWFDPWGQGTTVTVSSGGGGSGGGGSGGGASSYELTQDPAVSVALGQTVTITCQGDSLRTSYAGWLQQKPGQAPVLVLYGKTSRPSGIPDRFSGSTSGNTASLTITGAQAEDEAEYFCHSRDSNDNYLEVVFGGGTKLTVL
notes: as for B1
Kd: 94.8 nM

B4: scFv-Fc antibody including the scFv 2447_3C08 (Fc fusion)
scFv: EVQLLESGGGLVQPGGSLRLSCAASGFTFDDYAMHWVRQAPGKGLEWVSGISWNSGSIGYADSVKGRFTISRDNAKNSLYLQMNSLRAEDTALYYCAKDRGSGYEGNYYGMDVWGQGTLVTVSSGGGGSGGGGSGGGASSYELTQDPAVSVALGQTVRITCQGDSLRSYYASWYQQKPGQAPVLVIYGKNNRPSGIPDRFSGTTSGNTASLTITGAQAEDEADYYCNSRDSSGNHYVFGTGTKVTVL
notes: as for B1
Kd: 24 nM

B7: scFv-Fc antibody including the scFv 2447_3A08 (Fc fusion)
scFv: EVQLVQSGAEVKKPGASVKVSCKASGYTFTSYGISWVRQAPGQGLEWMGWISAYNGNTNYAQKLQGRVTMTTDTSTSTAYMELRSLRSDDTAVYYCARDRATIFGVVTPFDYWGQGTLVTVSSGGGGSGGGGSGGGASSYELTQDPAVSVALGQTVRITCQGDSIRSYSASWYQQKPGQAPRLVIYGKNNRPSGIPDRVSGSTSGNTASLTVTGAQAEDEADYYCNSRDSSGNRVVFGGGTQLTVL
notes: as for B1
Kd: 320 nM

B8: scFv-Fc antibody including the scFv 2447_3H02 (Fc fusion)
scFv: EVQLLESGGGLVQPGRSLRLSCAASGFTFDDYAMHWVRQAPGKGLEWVSGISWDSGSIGYADSVKGRFTISRDNAKNSLYLQMNSLRAEDTALYYCAKDVSSGWYWYAFDIWGQGTLVTVSSGGGGSGGGGSGGGASSYELTQDPAVSVALGQTVRITCQGDILRSYYASWYQQKPGQAPVLVIYGKNNRPSGIPDRFSGSSSGNTASLTITGAQAEDEADYYCNSRDSSGNRVVFGGGTKLTVL
notes: scFv-Fc format as used in the Biacore assay; not shown: Fc part (and any hinge or linker) of the scFv-Fc
Kd: 58.8 nM

Further binders by falling Kd, results first:

Kd: 51.7 nM
B2: scFv-Fc antibody including the scFv 2447_3B07 (Fc fusion)
scFv: QVQLVESGGVVVQPGGSLRLSCAASGFTFDDYAMHWVRQAPGRGLEWVSLTSWDGGSTYYADSVKGRFTISRDNSKNSLYLQMNSLRAEDTALYYCAKDHSSGWYNGGMDVWGQGTMVTVSSGGGGSGGGGSGGGASSYELTQDPAVSVALGQTVRITCQGDSLRSYYASWYQQKPGQAPVLVIYGKNNRPSGIPDRFSGSSSGNTASLTITGAQAEDEADYYCNSRDSSGNHVVFGGGTKLTVL
notes: as for B1

Kd: 51.5 nM
B5: scFv-Fc antibody including the scFv 2447_3A01 (Fc fusion)
scFv: EVQLLESGGGLVQPGGSLRLSCAASGFTFDDYAMHWVRQAPGKGLEWVSGISWNSGSIVYADFVKGRFTISRDNAKNSLYLQMNSLRAEDTALYYCAKDISSGWYPGTFDYWGQGTLVTVSSGGGGSGGGGSGGGASSYELTQDPAVSVALGQTVRITCQGDSLRSYYASWYQQKPGQAPVLVIYGKNNRPSGIPDRFSGSSSGNTASLTVTGAQAEDEADYYCSSRDSSDDVVFGGGTQLTVL
notes: as for B1

Kd: 13.8 nM
B6: scFv-Fc antibody including the scFv 2447_3A12 (Fc fusion)
scFv: EVQLVQSGAEVKKPGASVKVSCKASGYTFTSYGISWVRQAPGQGLEWMGWISAYNGNTNYAQKLRGRVTMTTDTSTSTAYMELRSLRSDDTAVYYCARDPHILTGYYRGGWFDPWGQGTLVTVSSGGGGSGGGGSGGGASSYELTQDPAVSVVLGQTVRITCQGDSLRSYYASWYQQKPGQAPVLVIYGKNNRPSGIPDRFSGSSSGNTASLTITGAQAEDEADYYCNSRDSSGNHRVFGGGTKLTVL
notes: as for B1
